A protein production outcome set (Wang et al. 2014)

Assay: label from the status in PepcDB records

| Sequence | protein production |
| --- | --- |
| MKSAPAVISVAFVLGLLTWLLLHGLNINSARYDSQLRALGDFTRFERGMTREVLTARAGLSRNYDALVHMVNAYDDALTRLRDTAGLDAEQTRVIDVLSARADRQESLIERFKSRNALLQNSFAYFGLFSDRLAASESRPVVTAASALAAAMLRLTLDTSDAAARQVEDRLEELAQLQAPPAETDSVHALLLHGQMLHDLLPDIDTILKTLVAESNNREQDAMLAVILKRQLAARASARKTRLLQYITSLLLLSGIIYFGMLLRKRAMALRRRAAFEHVIANISMLFINSSNDGIDADVEMALRQLAGCIGADRAYFACVVGTTMHTYRWSRDGIAFEPGWPERVLSLAPRLDGGEDGIVYIPRMNASHPHDAMLTEAGVSGWLCIMAAYGSRDGILGFDAVRGGALTYWSEVSLFRMAFDAIGNAIRRARLEGEKERLQASLQQARRMETIGTFASGIAHNFNNIVGAILGHAEMADARVAPGSRPAASLAEIRRAGERARELVEQILGFGRRGEGRRERVCLRTLVDETRSLLAASLPSHVTFEVDETADIAIVTGEPAQLQQVILNLCNNAAQAMKEPGRIELRIKVHDLVKPLSIGRSEVGPGRFTVISVADPGPGMDEATLERIFEPFFTTRPDGNGLGLATVREIVEQHGGAVAVQSRPDAGTRFDIWLPSGEPVEPQPAQHGSDPAFLGAGETVLVIDTDRRRLLRYEEILAALGYEPVGFTGLAEAIAACRAAHARFDAALVCHLPGGSSLDLAAALHDAAPALPIILAAPSTRDLAMPSLKTSGITELVHHPLASAELASALARSLVSSATSGRLRRAAGAS | failed |
| MKSGIGVGLKKEHLKIQINNSGVLTITGGCPVDQTKTIRFMKETKVAKDCKRNEIRAKFSKGVLYVTMPKTIPIAAGLSVSLKGATPQHQTPKTDEGMRNVANCSSEFYSKFGSLKQRLWRKTVVEGVAAVVVVAAAVLGVVKAYQYFMASPV | failed |
| MKSHKMMGGGISMHYITACLKIISDKDLNEIMKEFKKLEEETNKEEGCITFHAYPLEPSERKIMLWEIWENEEAVKIHFTKKHTIDVQKQELTEVEWLMKSNVND | not failed |
| MKSIRRGDGLNVVPFIDIMLVLLAIVLSISTFIAQGKIKVSLPNAKNAEKSQPNDQKVVVISVDEHDNIFVDDKPMNLEALSAVVKQTDPKTLIDLKSDKSSRFETFISIMDILKEHNHENFSISTQAQ | failed |
| MKSITQASFMKGIMFTFTIAIISYILAKFPILHTIGALAIAIIFAMIYRQVIGYPEHIRPGITFASKRLLKFAIILYGLKLNMGDILGKGWKLLLIDIIVIIFSISLTLLLNQIIKGNKDISILLGIGTGVCGAAAIAATAPILKSKEKDIAISVGIIALVGTIFALIYTAIEAIFNIPTITYGAWTGISLHEIAQVVLAAGIGGSEAMTFALLGKLGRVFLLIPLSIVLILYMRYKSHSSQVQQKIDIPYFLIGFIIMACINTFVPIPSLLMNIINVITTLCMLMAMVALGLNIVLKEVISKALKPFIVICITSICLSGVTLLVTSIMFK | failed |
| MKSITTDELKNKLLESKPVQIVDVRTDEETAMGYIPNAKLIPMDTIPDNLNSFNKNEIYYIVCAGGVRSAKVVEYLEANGIDAVNVEGGMHAWGDEGLEIKSI | failed |
| MKSIYYLSADDLFQMNTFLIQTYSPAEQIGIKDRNALEMASNQPAQFVFDVDLYPTIEEKAAILMINIATKHCFYNANKRTAVMATDLFLQLNGYDFQLDTQEGVDLLVFIATYRSDFDQLKNDVSKVIRAKLNHTSSHLEHHHHHH | not failed |
| MKSLEEKTIAKEQIFSGKVIDLYVEDVELPNGKASKREIVKHPGAVAVLAVTDEGKIIMVKQFRKPLERTIVEIPAGKLEKGEEPEYTALRELEEETGYTAKKLTKITAFYTSPGFADEIVHVFLAEELSVLEEKRELDEDEFVEVMEVTLEDALKLVESREVYDAKTAYAIQYLQLKEALQAQK | failed |
| MKSLHRPDLYSWSTFNPARNIDFNGFAWIRPEGNILIDPVALSNHDWKHLESLGGVVWIVLTNSDHVRSAKEIADQTYTKIAGPVAEKENFPIYCDRWLSDGDELVPGLKVMELQGSKTPGELALLLEETTLITGDLVRAYRAGGLEILPDEKLMNKQKVVASVRRLAALEKVEAVLVGDGWSVFRDGRDRLKELVATLA | not failed |
| MKSLWSDADAAECVERLGLLGLPPELGLRTYSARLLGSNPKLVLHGGGNTSVKLNINDLFGNPVQVMCIKGSGQDLATITASGHPAVRLAPLQQLKVLDHLSDEDMVNILRTNLLDCRAPTPSVEALLHAFVDRPVIDHTHAVAAMVIADQPDGDRLCRYIYGERVLWIPYVMSGFALSLAVERAFRAYPDAEGMLLGKHGLCTFGESAKASYERMITFVTLAENFIESRRAIYSPPVITPPAKPNNLADMAHIAPYLRAAFARSSAISEKKHWIFDLRTDPKSLAFSSGLGTSDIAQRGVATPDHVIRMKGRPVVLDAPDLNNLGDWAAQTQTKIAAFVERYQHYFHRNNARFERGKIALDALPRAIVIPYLGVVGAGRTAEDAAINADIIESWLDVVTDATVCGDYEPIGEADEFDMEYWSLEQAKIDKASVKPLQGQIVVVTGAGGGIGAAIAKEFSLLGAELAVLDIDSESAKNVAAQLGPHALALQCDVTETASVQAAFETIATRFGGVDIVVSNAGVALSGAIAELPEATLRTSFEVNFFAHQRVAQQAVSIMKKQGIGGVLLFNISKQAINPGINFGAYGTSKAALLSLVRQYALEQGQDSIRVNAVNADRIRSGLLDDEMISLRARARGLSEEKYMAGNLLGQEVTAQDVAKAFVVSAMLDKSTGNVITVDGGNVAAMLR | failed |
| MKSRIIVRTSFDAAHAVKVGDHWEDVHGHTFFLEVAIEGEIKNGYVMDFLELRKIVEEITKELDHRNLNNIFENPTTENIALWIGERIRDKLPPYVKLKRVVLWEGKDNGVELEW | not failed |
| MKSRWIIGRSEYLDLAFHAWKQARQDETVIRIEVPQDSEHEFDLGVLDGLNPTDGAMFVAFDERFGNFKRVELMQAAMERGFKLESYIHSSAAIGTDVVIGLNTFVGAHAVVGHGCKIDYNTVIHAGAHLGTACRIKSSCWIENGVQIGAGVEIGGNSILRTGAIVRGGIKVGRSCELGWPRVYCEDVPAKTYFDARYHNPIHTFGT | failed |
| MKSTEKKELSHFRLKLETYLNEHFPEMSGNNPFITARSDEALTAYCDAVAQGFSHPEAESMASEVLYQGLHFSRYDTLVSVLEREFEQELPSPLPERLAPILLKNKAIQSVFAKYDLTDDFEASPEYEHLYTELTGTIVLLIESNHLPTIGGGNDTV | not failed |
| MKSTFSVLFFVKKDKQKINGSYPIFVRITIDGVASRFNSKLDVQPKLWDGKAGKAAGRSAEATRINRLLDDINASLNTIYHELQRRDNYVTAEKVKNEFLGHSENHDTILNLFQKHNDDVKQLVGISKTIATYRKYEVTRRHLAEFIQSKYNLSDISIKEITPMFITDFELYLRTTCKCGYNTTAKFMQFFKRIILIARNNGILIGDPFANYKIRLEKVDRGYLTEDEIKIILKKKMVSERLEQVRDVFIFSCFSGLAYVDVANLKEDNIRKSFDGNLWIITKRQKTNTDVNVPLLDIPKMILEKYKGKLPNGKVLPIISNQK | not failed |
| MKSVKTLLTRPFNWVVLTFCIIFVGLFIFTFFNAKFYDTPIGQITQINNTQSTQVSDEHHNKDTKHKETLHIHILNGKFEGKTTTITHEYTESQADSEAFSKNDKVLLHVDKNLTTAYITEKKRDSLVVAITGIFLLTVLLVGKKIGLQSILSLALNTCIVLLAIYIHNQSPNISLFGLMSIAIFISTTLTLVLVTGWQWRTLITIISTLLGTFLCVGITQCIIQITDGSGLKFETMSFLTLPPKEVFLASVMIGSLGAVMDVAITIASGMAEILRRTPDISMRRWALAGCNIGQDIMGTMTNILLFSYLSGSLPMLLIYLKNANTITYTISMNWSLEISRAITGGIGIVLTIPITILLMQVWFKLRGVKS | failed |
| MKSVQEKRNNTRAFKTVAKSWFATKTTWSEDYQRSVWTRLETYLFPDIGNKDIAELDTGDLLVPIKKIEKLGYLEIAMRVKQYATAIMRYAVQQKMIRFNPAYDLEGAVQKLEHHHHHH | not failed |
